Measurements: patent US20210087281A1 (AGOMAB THERAPEUTICS, published 2021)

Key:
Assay in all cases: cell-based or functional assay
[1] = molecular target: T1, native mouse MET on living cells (mouse, UniProt P16056 25-1379)
[2] = molecular target: T1, native mouse MET on living cells; remark: listed apart in the source
[3] = molecular target: T1, native mouse MET on living cells; remark: listed apart in the source
[4] = molecular target: T1, native mouse MET on living cells; remark: listed apart in the source

B1: recombinant mouse HGF (R&D Systems) (ligand, UniProt Q08048 33-728, looked up)
chain: QKKRRNTLHEFKKSAKTTLTKEDPLLKIKTKKVNSADECANRCIRNRGFTFTCKAFVFDKSRKRCYWYPFNSMSSGVKKGFGHEFDLYENKDYIRNCIIGKGGSYKGTVSITKSGIKCQPWNSMIPHEHSFLPSSYRGKDLQENYCRNPRGEEGGPWCFTSNPEVRYEVCDIPQCSEVECMTCNGESYRGPMDHTESGKTCQRWDQQTPHRHKFLPERYPDKGFDDNYCRNPDGKPRPWCYTLDPDTPWEYCAIKTCAHSAVNETDVPMETTECIQGQGEGYRGTSNTIWNGIPCQRWDSQYPHKHDITPENFKCKDLRENYCRNPDGAESPWCFTTDPNIRVGYCSQIPKCDVSSGQDCYRGNGKNYMGNLSKTRSGLTCSMWDKNMEDLHRHIFWEPDASKLNKNYCRNPDDDAHGPWCYTGNPLIPWDYCPISRCEGDTTPTIVNLDHPVISCAKTKQLRVVNGIPTQTTVGWMVSLKYRNKHICGGSLIKESWVLTARQCFPARNKDLKDYEAWLGIHDVHERGEEKRKQILNISQLVYGPEGSDLVLLKLARPAILDNFVSTIDLPSYGCTIPEKTTCSIYGWGYTGLINADGLLRVAHLYIMGNEKCSQHHQGKVTLNESELCAGAEKIGSGPCEGDYGGPLICEQHKMRMVLGVIVPGRGCAIPNRPGIFVRVAYYAKWIHKVILTYKL
modifications: biotinylated at the N-terminus using NHS-LC-biotin (in the competition ELISAs only)
[1]
  phospho-MET ELISA EC50, MLP29 cells: 0.23 nM
  phospho-MET ELISA EMAX (% HGF activity), MLP29 cells: 100%
[2]
  scatter score 0-4, MLP29, 0.001 nM: 0 score
  scatter score 0-4, MLP29, 0.004 nM: 1 score
  scatter score 0-4, MLP29, 0.012 nM: 2 score
  scatter score 0-4, MLP29, 0.037 nM: 3 score
  scatter score 0-4, MLP29, 0.111 nM: 4 score
  scatter score 0-4, MLP29, 0.333 nM: 4 score
  scatter score 0-4, MLP29, 1.000 nM: 4 score
  scatter score 0-4, MLP29, 3.000 nM: 4 score
  scatter score 0-4, MLP29, 9.000 nM: 4 score
[3]
  protection from staurosporine, viability EC50, MLP29 cells: 5.35 nM
  protection from staurosporine, viability EMAX, MLP29 cells: 58.6%
[4]
  branches per spheroid, MLP29 cells, 0.5 nM: 32.3 branches
  branches per spheroid, MLP29 cells, 2.5 nM: 43.7 branches
  branches per spheroid, MLP29 cells, 12.5 nM: 36 branches
